Results taken from patent US20200407457A1 (YANTAI OBIOADC BIOMEDICAL TECHNOLOGY, published 2020).
Like-named read-outs stand apart in the source and are kept apart here.

B1: Zapadcine-1a (antibody, V domains shown)
VH: QVQLVQSGSELKKPGASVKVSCKASGYTFTDFSMNWVRQAPGQGLEWMGWINTETGEPTYADDFKGRFVFSLDTSVSTAYLQISSLKAEDTAVYYCARIDYWGQGTTVTVSS
VL: DIVMTQSPLSLPVTPGEPASISCRSSQSLVHSNGNTYLHWYLQKPGQSPQLLIYKVSNRFSGVPDRFSGSGSGTDFTLKISRVEAEDVGVYYCFQSTHVPHTFGQGTKLEIKR
modifications: MMAD coupled through linker Py-Vc-PAB by thiol (disulfide) bridge coupling, cleavable; positions not given
B2: Zaptuzumab (antibody, V domains shown)
VH: B1 VH
VL: B1 VL
B3: Zapadcine-3e (antibody, V domains shown)
VH: B1 VH
VL: B1 VL
modifications: MMAF coupled through linker MC by thiol conventional coupling, non-cleavable; positions not given
B4: Zapadcine-3c (antibody, V domains shown)
VH: B1 VH
VL: B1 VL
modifications: MMAE coupled through linker MC-VC-PAB by thiol conventional coupling, cleavable; positions not given
B5: Zapadcine-3a (antibody, V domains shown)
VH: B1 VH
VL: B1 VL
modifications: MMAE coupled through linker PY-VC-PAB by thiol bridge coupling, cleavable; positions not given
B6: Zapadcine-1b (antibody, V domains shown)
VH: B1 VH
VL: B1 VL
modifications: MMAD coupled through linker Mc-Vc-PAB by thiol conventional coupling, cleavable; positions not given
B7: Zapadcine-1c (antibody, V domains shown)
VH: B1 VH
VL: B1 VL
modifications: MMAD coupled through linker Py-MAA by thiol bridge coupling, non-cleavable; positions not given
B8: Zapadcine-3b (antibody, V domains shown)
VH: B1 VH
VL: B1 VL
modifications: MMAE coupled through linker PY-MAA by thiol bridge coupling, non-cleavable; positions not given
B9: Zapadcine-1d (antibody, V domains shown)
VH: B1 VH
VL: B1 VL
modifications: MMAF coupled through linker Mc-Vc-PAB by thiol conventional coupling, cleavable; positions not given
B10: Zapadcine-3d (antibody, V domains shown)
VH: B1 VH
VL: B1 VL
modifications: MMAE coupled through linker MC by thiol conventional coupling, non-cleavable; positions not given

What was measured:
[1] = molecular target: T1, TRAILR2 receptor on the surface of human tumor cells (human, UniProt O14763 56-440); assay: cell-based or functional assay
[2] = molecular target: T1, TRAILR2 receptor on the surface of …; assay: cell-based or functional assay; remark: listed apart in the source

Binder	IC50, cytotoxic effect on Jurkat E6-1 cells (CellTiter-Glo, 72 h) [1] [µg/mL]	IC50, cytotoxic effect on Mia PaCa-2 cells (CellTiter-Glo, 72 h) [1] [µg/mL]	IC50, cytotoxic effect on NCI-H460 cells (CellTiter-Glo, 72 h) [1] [µg/mL]	IC50, cytotoxic effect on NCI-H1975 cells (CellTiter-Glo, 72 h) [1] [µg/mL]	IC50, cytotoxic effect on SMMC-7721 cells (CellTiter-Glo, 72 h) [1] [µg/mL]	eff. (efficiency %), cytotoxic effect on Jurkat E6-1 cells [1] [%]	eff. (efficiency %), cytotoxic effect on Mia PaCa-2 cells [1] [%]	eff. (efficiency %), cytotoxic effect on NCI-H460 cells [1] [%]	eff. (efficiency %), cytotoxic effect on NCI-H1975 cells [1] [%]	eff. (efficiency %), cytotoxic effect on SMMC-7721 cells [1] [%]	IC50, cytotoxic effect on Jurkat E6-1 cells (CellTiter-Glo, 72 h) [2] [µg/mL]	IC50, cytotoxic effect on MSTO-211H cells (CellTiter-Glo, 72 h) [2] [µg/mL]	IC50, cytotoxic effect on Mia PaCa-2 cells (CellTiter-Glo, 72 h) [2] [µg/mL]	IC50, cytotoxic effect on Reh cells (CellTiter-Glo, 72 h) [2] [µg/mL]	eff. (efficiency %), cytotoxic effect on Jurkat E6-1 cells [2] [%]	eff. (efficiency %), cytotoxic effect on MSTO-211H cells [2] [%]	eff. (efficiency %), cytotoxic effect on Mia PaCa-2 cells [2] [%]	eff. (efficiency %), cytotoxic effect on Reh cells [2] [%]	IC50, cytotoxic effect on A172 cells (CellTiter-Glo, 72 h) [2] [µg/mL]	eff. (efficiency %), cytotoxic effect on A172 cells [2] [%]	also measured
B1	0.0134	0.135	0.0865	0.109	0.012	97.3	88.4	96.2	84.6	99.4											IC50, cytotoxic effect on A2780 cells (CellTiter-Glo, 72 h) [1]: 0.151 µg/mL
B2	0.201	3.01		0.542	6.12	90.7	27.5		62.4	48	0.201	0.514	2.9	1.59	90.7	47.8	33.2	45			
B3											0.0981	0.177	0.951	0.163	90.7	99.1	53	77.4			
B4											0.0896	0.22	0.508	0.889	82	98.2	86.3	98.6	0.703	93.2	
B5											0.0372	0.127	0.097	0.0159	80.2	97.5	88.8	89.8	0.225	98.2	
B6	0.00871	0.604	0.178	0.411	0.178	98.6	86.8	93.3	83.4	95.7											IC50, cytotoxic effect on A2780 cells (CellTiter-Glo, 72 h) [1]: 1.1 µg/mL
B7	0.0165	0.173	0.0651	0.312	0.0197	98.1	74	46.4	83	96.5											
B8											0.0717	0.255	0.415	0.196	87.1	91	52.9	75.3	0.389	90.8	
B9	0.108	1.02	1.03	1.67	0.583	84.9	80	80.6	68.8	93.7											
B10											0.00571	0.123	0.139	0.0242	98.9	98.5	81.7	98.8	0.307	92.5	
